# Like-named read-outs stand apart in the source and are kept apart here.
# B1: SSAP_199: SEQ ID NO: 368; uncultured Mediterranean phage uvMED (protein)
# chain: TSSITPLVAMQGTLEKMADKFTEALPRQMDVNKFISVAKLTLNKNPRLLQADKTSLMQTFMKAAQDGLYLDGKEAAAVQYGQSVQYIPMVEGIIKVLHNSGLIKTISAEVVYENDFFDYELGTAPKITHKPLIVGDRGKPMCVYAVAITTNDGEYYEVMNMDQINQCRQVSKASSSPHSPWVKWFDQMAKKTVIHRIAKRLPKNDAINSVVTVDDEPNFQQAVNVTPSEPKDSLSRLRDSIGMEGKDVEQAANDLLEKYNKEAREE
# modifications: uncultured Mediterranean phage uvMED
# B2: SSAP_12: SEQ ID NO: 181 (protein)
# chain: STALATLAGKLAERVGMDSVDPQELITTLRQTAFKGDASDAQFIALLIVANQYGLNPWTKEIYAFPDKQNGIVPVVGVDGWSRIINENQQFDGMDFEQDNESCTCRIYRKDRNHPICVTEWMDECRREPFKTREGREITGPWQSHPKRMLRHKAMIQCARLAFGFAGIYDKDEAERIVENTAYTAERQPERDITPVNDETMQEINTLLIALDKTWDDDLLPLCSQIFRRDIRASSELTQAEAVKALGFLKQKASEQKVAA
# B3: SSAP_229: SEQ ID NO: 398; Amycolatopsis sp. CB00013 (protein, listed as Amycolatopsis sp.)
# chain: TTQTVTSAVAQQDSSPAALVRKYRTDFATVLPSHIKPETWLRIATGALRRSSQLAHAAEKNPTSLLVALLDAARKGLEPGTEQYYLVPRKTKRGPEVLGITGYQGEVELMYRAGAVSSVKVEGVREHDTFAYNPGEHDRPVHEINWRANRGDLVLAYAYAYAKMRDGATSNVSVLSADDIAVILSKAEGADSPFSPWQWNPKAMWLKSAAHQLAKWVPTSAERVWQPDGPPLEAPPATPVTLPTVEDVVDAEVVEDWPTTPADTADSEQ
# B4: SSAP_198: SEQ ID NO: 367; Streptomyces sp. ms191 (protein, listed as Streptomyces sp.)
# chain: VEHYKADLAQVMPSHVKPDTFIRLAVGVLRRDRNLAQAAQNNPAALMGALMDAAQLGLTPGTEQFYLVPRKKAGRLEVQGIRGYQGEIELIYRAGAVSSVIVEVVRQADTFRYSPGRDERPEHEIDWDAEDRGPLRLVYAYAVMKDGATSKVVVLNRAQVMKAKAMSQGSDSAYSPWQKHEEAMWMKTAAHRLTKWVPTSAEYMREQLRAAAEVAAEHRPTPVAAAPGMPSVPGEDEAIEAEFVDEDEVA
# B5: SSAP_221: SEQ ID NO: 390; Streptomyces sp. 351MFTsu5.1 (protein, listed as Streptomyces sp.)
# chain: SQISNAIEKRDQGPGAVIEQYKQELALVAASHVKVDTFARLAVGALRQNPKLAAAAQSNPGSLMSALMTAARLGLEPGTEQFYLRPIKRKGVAEVQGIVGYQGIVELIYNAGAASSVVVEVVRANDQFNYVPGLHERPVHNVDWFGDRGDLVGVYAYAVMAGGATSKVVVLSRTHINRAKAKSDGADSDYSPWRTDEEAMWLKTAARRLGKWVPTSAERLTMPAERTDTVLPVGSAAPALDAADPDEDEGPVDGELEPAGGWPETAQPPQ
# B6: SSAP_309: SEQ ID NO: 478; Paenibacillus sp. FSL R7-0333 (protein, listed as Paenibacillus sp.)
# chain: TVAIELQVQETLDRILDSKHDALPSDFNKKRFSENCKAYVADEKDLHKYSPEEIAANLFKGAVLGLDFLAKECHLISGGVELKFQTDYKGEMKLTKKYSVRPLLDVYAKNVREGDEFREEVIEGRPVIHFAPLPFNASSIIGSFAVALFQDGGMVYESIPAGEIEEIRKNYGKSLGDAWDKSQGEMYKRTVLRRLCKTIETDFDAEQRLIYDAGGAFEFTKQPARSRQQSPFNPPEESEVTQDDRVAETDQG
# B7: SSAP_36: SEQ ID NO: 205 (protein)
# chain: SSIAAAAESAEVTPASIINKYRDDIATVLPPKLRERIDRWIRLAIGAVNSNPELISRVRADQGASMMQALMKCAALGHEPGSGLFHLVPKGSRIEGWEDYKGILQRIDRSGVYARTVIGVVYANDEYSYDQNVDERPRHVRATGDRGEPISSYAYAVYPSGAITTVAEATPEQIASSKSKARGADNAASPWRAPGAPMHRKVAVRLLEKHVATSAEDRREPISRSAANDVVIDATADYYQEP
# B8: SSAP_15: SEQ ID NO: 184 (protein)
# chain: AKNELAKGSYLTDLQKLDGNTLRDFVDPKHQASPQELQALLAIVKGRNLNPFTKEVYFIKYGSAPAQIVVSKEAIMKRAEENPDFDGFEAGIVVETKDGAIERLTGTIVPKSATLRGGWCKVYRKDRSHAIEADADFAYYTTSKNLWQKMPALMIRKVAIVSAFREAFSESVGGLYTADEMQRETQAEVRARKMKEAYEEKLYLLTQMEAKSYKKTKSKNENEAKKTKEAEAIETVEEPTQDGNLEW
# B9: SSAP_194: SEQ ID NO: 363; Streptomyces sp. CS014 (protein, listed as Streptomyces sp.)
# chain: TENTVTAAVAVRDTGPAAQIEAYRDEYAALVPSHINADQWVRLAVGAIRGNEDLTNAARTDIGVFLRELKTAARLGLEPGTEQFYLTPRKSKAHRGQKIIKGIVGYQGIIELIYRAGAVSSVIVESVRANDTFRYVIGRDERPVHEIDWFGGDRGDLVGVYAYATMKDGATSKVVVLNHAQVMQIRAKSDSKHSEYSPWNTNPESMWLKSAVRQLMKWVPTSAEYMREQLRAQAEVAAEQPPAADLPPMPSVELNDEDEAVDAELVDEEA
# How the values were obtained:
# Format in all cases: cell-based
# gene editing with Cas9 = assay: Screen of 322 new SSAP proteins, gene editing activity with Cas9 (Table 5); set-up: Cas9 with SSAP activity: scale not given here
# Method in brief: (§1)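 Sequence-mined SSAPs (n=322), synthesized; editing activity screened with Cas9 or dCas9.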
# mammalian cells = assay: Arrayed SSAP library screening, cell viability by live cell counts via flow cytometry
# Method in brief: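 Each SSAP plasmid transfected in duplicate (~50% efficiency), with RecT SSAP as positive and Flag-HA as negative control. After three days, mKate-positive cells and viability by flow-cytometric live cell counts were quantified to gauge SSAP fitness effects.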
# gene editing with dCas9 = assay: Screen of 322 new SSAP proteins, gene editing activity with dCas9 (Table 5); set-up: dCas9 with SSAP activity: scale not given here
# Method in brief: as §1
# [1] = system: gene editing with Cas9 and dCas9; assay: Screen of 322 new SSAP proteins, activity across all experiments (Cas9 and dCas9, Table 5); set-up: scale not given here
# Method in brief: as §1
# [2] = system: endogenous genome targets (ACTB, HSP90AA1); assay: Arrayed SSAP library screening, mKate knock-in assay (editing efficiency); conditions: average of HSP90 and ACTB, 3 days after transfection; for Editing Efficiency (Normalized, Average, two targets): fold over negative control (Flag_HA); for Editing Efficiency (Absolute, Average, two targets): percent of mKate knock-in
# Method in brief: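 Mammalian cells in duplicate were transfected with SSAP-encoding plasmids, with about 50% transfection efficiency. mKate knock-in positive cells and viability, by flow-cytometric live counts, were quantified three days later. RecT SSAP served as positive control and Flag-HA plasmid as negative control.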
Molecule,Cas9 with SSAP activity (gene editing with Cas9),Cas9 with SSAP activity (normalized) (gene editing with Cas9),"Cell Viability (Average, two targets) (mammalian cells; live cell counts via flow cytometry, average of HSP90 and ACTB)",dCas9 with SSAP activity (gene editing with dCas9),dCas9 with SSAP activity (normalized) (gene editing with dCas9),Activity across all experiments [1],"Editing Efficiency (Normalized, Average, two targets) [2]","Editing Efficiency (Absolute, Average, two targets) [2]","Cell Viability (Average, two targets) (mammalian cells)"
B1,−7.274,−1.400,0.5186,−2.480,−0.364,−4.877,4.602,11.4025,–
B2,−7.814,−1.324,–,−7.567,−1.196,−7.690,4.263,10.5525,1.291
B3,−2.969,−0.509,–,−9.275,–,−6.122,3.971,9.8525,0.8776
B4,−4.061,−0.571,–,−2.578,−0.849,−3.320,5.524,13.65,0.4444
B5,−4.494,−0.728,–,−8.056,–,−6.275,4.587,11.35,0.9772
B6,−3.975,−1.807,–,−9.420,−2.412,−6.697,3.992,9.885,0.9224
B7,−4.118,−0.619,–,−8.909,−1.787,−6.514,6.383,15.8,0.9418
B8,−1.876,−0.850,–,−0.701,−2.250,−1.288,5.477,13.55,1.226
B9,2.727,3.516,–,−8.790,–,−3.031,4.924,12.175,1.139
